B1: Ankyrin repeat-containing protein YAR1 (Saccharomyces cerevisiae), P46683 (parent)
chain: MGLHSEPLDQEDQDTIILDARAGDLDSLKDIFTTLVSPELLSTCKESESDSTALHMAAANGHIETVRYILETVSRANSAEDLKAFVNEVNKTGNTALHWASLNGKLDVVKLLCDEYEADPFIRNKFGHDAIFEAENSGKEEVETYFLKKYDVEPEDDEEDTQTEGKNSVQITKGTEIEQVTKEATEALREETEKLNINKD
partner: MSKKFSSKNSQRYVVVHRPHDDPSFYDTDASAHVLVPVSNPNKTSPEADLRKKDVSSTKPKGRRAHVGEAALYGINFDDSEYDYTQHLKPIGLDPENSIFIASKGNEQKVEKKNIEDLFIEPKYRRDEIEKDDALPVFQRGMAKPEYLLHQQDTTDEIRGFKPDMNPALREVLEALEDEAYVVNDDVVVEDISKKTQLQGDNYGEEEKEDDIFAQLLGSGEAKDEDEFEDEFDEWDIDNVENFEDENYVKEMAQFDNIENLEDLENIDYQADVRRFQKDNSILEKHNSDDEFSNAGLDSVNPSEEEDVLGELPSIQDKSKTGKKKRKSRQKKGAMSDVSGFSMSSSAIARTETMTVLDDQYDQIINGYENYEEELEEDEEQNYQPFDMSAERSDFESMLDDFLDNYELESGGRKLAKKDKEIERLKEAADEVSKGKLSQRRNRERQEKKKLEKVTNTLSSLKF

Variants of: B1
Details: with ltv1_yeast LTV1, P34078

Row | effect of a mutation on the interaction | Variant
1 | decreasing interaction | K91A
2 | decreasing interaction | K125A
